Measurements as given in patent US12180485B2, “Repressible control of gene expression” (TRUSTEES OF BOSTON UNIVERSITY, priority 2020, dated 2024).
“Also recorded” adds a separate entry of the source.

What was measured:
mCherry [1] = assay: Split Cas13 (559/560) or WTCas13 driven by inducible promoters (NFkB, CAGA12, AP1), mCherry knockdown; assay type: cell-based; conditions: NFkB promoter with TGFbeta; CAGA12 promoter with TNFalpha; AP1 promoter with PMA
From the text: FIG. 13A-13E is a series of schematics and graphs showing the coupling of split Cas13 (559/560) expression to inducible promoters responsive to endogenous signals. Inducible promoters responsive to endogenous signals drove split Cas13 expression for the construction of AND logic gate. FIG. 13A is a schematic showing the transfection compositions of endogenous signal-responsive promoters (e.g., “short response elements” and “miniP”) driving split Cas13d's. […] FIG. 13E is a series of bar graphs showing that orthogonality among the 3 inducible promoters tested. In FIG. 13B-13D, the left-right order of the bars for each design is the same as the top-down order of the legend for each bar graph, and “NT-gRNA” is non-target gRNA. In FIG. 13E, the left-right order of the bars is the same as the top-down order of the legend for each bar graph.

NFkB promoter = assay: Orthogonality of inducible promoters driving fluorescent proteins; assay type: cell-based; conditions: PMA is the inducer for AP1 promoter
From the text: Although the propensity of many Cas13 splits to reconstitute spontaneously has led to leaky knockdown activity when coupled with CID systems, transcriptional control of such splits creates an AND gate logic. Inducible promoters (IP) such as WNT, NFkB, CAGA12, and AP1 promoters are available to orthogonally drive split Cas13 expression. In such design, there can only be target knockdown activity when there is input for both promoters. After verification for the ability of these promoters to inducibly drive gene expression using fluorescent proteins (see e.g., FIG. 13E), experiments were conducted with split RfxCas13d pieces and WT RfxCas13d. The chosen split was 559/560 as this split pair is able to achieve target knockdown efficiency more than 80%, and its knockdown ability surpasses that of WT RfxCas13d when coupled with the GIB CID system. Inducible promoter driving the WT Cas13 serves as the positive control (see e.g., FIG. 13A middle panel; see e.g., setting 3 in FIG. 13B, corresponding to “IP-WT” in FIG. 13B-13D). The highest inducibility among the 3 IPs was 30% inducibility with the promoter CAGA12. […] As such, the aforementioned constructs (e.g., split recombinase and IPs) can be integrated into AAVS1 sites and their performance evaluated.

recombinase reporter = assay: Split recombinases (Cre, Flp, PhiC, vCre) with tandem or single CaffVHH, recombinase reporters, caffeine induction; assay type: cell-based; conditions: 48 hours of 100 uM caffeine
mCherry [2] = assay: mCherry knockdown by inducible split RfxCas13d (ON switch) in transfected HEK 293 FT cells, flow cytometry; assay type: cell-based
HLA-A2 = assay: Endogenous gene knockdown: HLA-A2 antibody staining of HEK 293FT cells transfected with B2M targeting gRNA, flow cytometry; assay type: cell-based; conditions: RAP inducible split pair, compared with WT RfxCas13
[3] = tested on: mCherry expression in HEK 293 FT cells; assay: Cas13d/gRNA mCherry knockdown, transient transfection, flow cytometry; assay type: cell-based; conditions: mCherry expression at various levels
From the text: FIG. 4A-4D is a series of schematics and graphs showing that Cas13d achieved robust transgene knockdown in HEK 293 FT cells. FIG. 4A is a schematic showing the necessary components for the CRISPR/Cas13d system. […] Minimizing either one component led to the abolishment of knockdown ability.
In order to gain better understanding of the activity of the Cas13 effector/gRNA system, it was first examined how variation in the expression of each components (e.g., target, guide, and/or effector protein) relate to the knockdown efficiency of the system. HEK 293 FT cells were transiently transfected with the components of the system, and expression of the targeted gene, mCherry, was tested using flow cytometry. […] Another important feature of Cas13d is its ability to process pre-mature gRNA arrays and achieve multiplexed gene targeting. To verify this, pre-gRNAs with spacer regions flanked by 2 direct repeat sequences were transfected with Cas13d into HEK 293 FT cells. Target gene knockdown was later quantified and compared to that by mature gRNAs.

[4] = tested on: bystander fluorescent proteins (GFP, BFP, iRFP); assay: Collateral cleavage of bystander fluorescent proteins by Cas13d during mCherry on-target knockdown; assay type: cell-based
From the text: FIG. 5A-5C is a series of schematics and graphs showing collateral activity of Cas13d. […] As the plasmid dosage of the bystander fluorescent protein decreased, bystander expression was knocked down at a higher level.
The green fluorescent protein (GFP) was used initially as a transfection marker and as a non-targeted gene expression control. […] GFP was knocked down by Cas13d only when mCherry was present, confirming that this is a collateral activity instead of a result from non-specific gRNA design.

[5] = tested on: mCherry reporter and endogenous transcripts in HEK293T cells; conditions: cited from earlier work

With CCCCCCCCCCCCCC(=O)O[C@@H]1[C@@H](C)[C@@]2(O)[C@@H](C=C(CO)C[C@]3(O)C(=O)C(C)=C[C@@H]23)[C@@H]2C(C)(C)[C@]12OC(C)=O [PMA, reference compound] the “mCherry knockdown by split Cas13d or WTCas13 expressed from inducible promoter” value (mCherry [1]) was “induced mCherry knockdown” and the “activation of NFkB inducible promoter” value (NFkB promoter) was “turned on”.

B1: Flp split 374/375: split Flp, aa 1-374 / 375-423 of SEQ ID NO: 60, with tandem or single CaffVHH (protein, listed as Saccharomyces cerevisiae)
chain: MSQFDILCKTPPKVLVRQFVERFERPSGEKIASCAAELTYLCWMITHNGTAIKRATFMSYNTIISNSLSFDIVNKSLQFKYKTQKATILEASLKKLIPAWEFTIIPYNGQKHQSDITDIVSSLQLQFESSEEADKGNSHSKKMLKALLSEGESIWEITEKILNSFEYTSRFTKTKTLYQFLFLATFINCGRFSDIKNVDPKSFKLVQNKYLGVIIQCLVTETKTSVSRHIYFFSARGRIDPLVYLDEFLRNSEPVLKRVNRTGNSSSNKQEYQLLKDNLVRSYNKALKKNAPYPIFAIKNGPKSHIGRHLMTSFLSMKGLTELTNVVGNWSDKRASAVARTTYTHQITAIPDHYFALVSRYYAYDPISKEMIAL
modifications: split with 375-423; CaffVHH fusions
In the case of B1, the “induced recombination, tandem CaffVHH compared to single CaffVHH” value (recombinase reporter) is reported as “comparable induced recombination, if not better”.

B2: 565/566: RfxCas13d split between residues 565/566; N and C fragments plain or fused to CID domains (protein)
chain 1: IEKKKSFAKGMGVKSTLVSGSKVYMTTFAEGSDARLEKIVEGDSIRSVNEGEAFSAEMADKNAGYKIGNAKFSHPKGYAVVANNPLYTGPVQQDMLGLKETLEKRYFGESADGNDNICIQVIHNILDIEKILAEYITNAAYAVNNISGLDKDIIGFGKFSTVYTYDEFKDPEHHRAAFNNNDKLINAIKAQYDEFDNFLDNPRLGYFGQAFFSKEGRNYIINYGNECYDILALLSGLRHWVVHNNEEESRISRTWLYNLDKNLDNEYISTLNYLYDRITNELTNSFSKNSAANVNYIAETLGINPAEFAEQYFRFSIMKEQKNLGFNITKLREVMLDRKDMSEIRKNHKVFDSIRTKVYTMMDFVIYRYYIEEDAKVAAANKSLPDNEKSLSEKDIFVINLRGSFNDDQKDALYYDEANRIWRKLENIMHNIKEFRGNKTREYKKKDAPRLPRILPAGRDVSAFSKLMYALTMFLDGKEINDLLTTLINKFDNIQSFLKVMPLIGVNAKFVEEYAFFKDSAKIADELRLIKSFARMGEPIADARRAMYIDAIRILGTNLSYDELK
chain 2: ALADTFSLDENGNKLKKGKHGMRNFIINNVISNKRFHYLIRYGDPAHLHEIAKNEAVVKFVLGRIADIQKKQGQNGKNQIDRYYETCIGKDKGKSVSEKVDALTKIITGMNYDQFDKKRSVIEDTGRENAEREKFKKIISLYLTVIYHILKNIVNINARYVIGFHCVERDAQLYKEKGYDINLKKLEEKGFSSVTKLCAGIDETAPDKRKDVEKEMAERAKESIDSLESANPKLYANYIKYSDEKKAEEFTRQINREKAKTALNAYLRNTKWNVIIREDLLRIDNKTCTLFRNKAVHLEVARYVHAYINDIAEVNSYFQLYHYIMQRIIMNERYEKSSGKVSEYFDAVNDEKKYNDRLLKLLCVPFGYCIPRFKNLSIEALFDRNEAAKFDKEKKKVSGNS
In the case of B2, the “performance after NES/NLS compartmentalization” value (mCherry [2]; GIB induced split pairs, NES on one moiety, NLS on the other) is reported as “high inducibility with minimal leakiness”, the “performance of reversed CID orientation versus original orientation” value (mCherry [2]; GIB: N ss-GAI/GID-ss C, ABA: N ss-PYL/ABI-ss C) is reported as “stronger inducibility and weaker leakiness” and the “knockdown across the various CID systems” value (mCherry [2]; split pairs coupled with CID domains, with inducer) is reported as “efficient knockdown; also recorded: consistently strong drug-induced knockdown”. For the same molecule, the “decrease in HLA-A2 expression level” value (HLA-A2) was “comparable decrease in HLA-A2 expression level”.

B3: Cas13d: type VI-D CRISPR-associated RNA-guided ribonuclease Cas13d Ruminococcus flavefaciens, SEQ ID NO: 1 (protein, listed as Ruminococcus flavefaciens)
chain: IEKKKSFAKGMGVKSTLVSGSKVYMTTFAEGSDARLEKIVEGDSIRSVNEGEAFSAEMADKNAGYKIGNAKFSHPKGYAVVANNPLYTGPVQQDMLGLKETLEKRYFGESADGNDNICIQVIHNILDIEKILAEYITNAAYAVNNISGLDKDIIGFGKFSTVYTYDEFKDPEHHRAAFNNNDKLINAIKAQYDEFDNFLDNPRLGYFGQAFFSKEGRNYIINYGNECYDILALLSGLRHWVVHNNEEESRISRTWLYNLDKNLDNEYISTLNYLYDRITNELTNSFSKNSAANVNYIAETLGINPAEFAEQYFRFSIMKEQKNLGFNITKLREVMLDRKDMSEIRKNHKVFDSIRTKVYTMMDFVIYRYYIEEDAKVAAANKSLPDNEKSLSEKDIFVINLRGSFNDDQKDALYYDEANRIWRKLENIMHNIKEFRGNKTREYKKKDAPRLPRILPAGRDVSAFSKLMYALTMFLDGKEINDLLTTLINKFDNIQSFLKVMPLIGVNAKFVEEYAFFKDSAKIADELRLIKSFARMGEPIADARRAMYIDAIRILGTNLSYDELKALADTFSLDENGNKLKKGKHGMRNFIINNVISNKRFHYLIRYGDPAHLHEIAKNEAVVKFVLGRIADIQKKQGQNGKNQIDRYYETCIGKDKGKSVSEKVDALTKIITGMNYDQFDKKRSVIEDTGRENAEREKFKKIISLYLTVIYHILKNIVNINARYVIGFHCVERDAQLYKEKGYDINLKKLEEKGFSSVTKLCAGIDETAPDKRKDVEKEMAERAKESIDSLESANPKLYANYIKYSDEKKAEEFTRQINREKAKTALNAYLRNTKWNVIIREDLLRIDNKTCTLFRNKAVHLEVARYVHAYINDIAEVNSYFQLYHYIMQRIIMNERYEKSSGKVSEYFDAVNDEKKYNDRLLKLLCVPFGYCIPRFKNLSIEALFDRNEAAKFDKEKKKVSGNS
In the case of B3, the mCherry knockdown efficiency [3] is reported as “around 80%”, the “effect on bystander iRFP expression” value ([4]; mCherry on-target knockdown by Cas13d) is reported as “least disturbed; also recorded: minimally affected” and the “effect on bystander BFP expression” value ([4]; mCherry targeting Cas13d system) is reported as “strongly affected”. For the same molecule, the “effect on bystander GFP expression” value ([4]; mCherry targeting Cas13d system, mCherry present) was “knocked down along with mCherry”, the knockdown efficiency ([5]; HEK293T cells, mCherry reporter and endogenous transcripts) was 80-95% and the “knockdown of mCherry and endogenous gene expression” value ([5]; mammalian cells) was 85-90%.
